Ends that are not written are not given here.

This note sets out measurements from patent US20070276130A1 (CHILDREN S MEDICAL CENTER, published 2007).

Data set [1] deals with VP5CT of rhesus rotavirus (RRV) VP4 (rhesus rotavirus (RRV)) (UniProt P12473). Nature of the data set: X-ray crystal structure.
Data set [2] deals with the molecule itself. Nature of the data set: X-ray crystal structure (crystal packing).
The target of data set [3] is T1, DS-1 VP8* core with residues 60-64 mutated to SGSGG (human rotavirus strain DS-1, UniProt P11196 65-223 (Rotavirus A entry)).
T1 construct: That conversion is mine; also called modified DS-1 VP8* core; unlabeled VP8* core
T1 chain: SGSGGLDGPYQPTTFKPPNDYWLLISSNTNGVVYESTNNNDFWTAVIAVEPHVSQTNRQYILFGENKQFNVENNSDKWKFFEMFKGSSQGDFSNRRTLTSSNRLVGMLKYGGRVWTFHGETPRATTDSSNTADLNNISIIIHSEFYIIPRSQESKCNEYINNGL
As to the kind of experiment: two-dimensional 15N-1H HSQC NMR; no change in the chemical shifts of the 15N valines of the peptide.
Text: We used nuclear magnetic resonance (NMR) spectroscopy to assay the binding in solution of a peptide based on the leader to the potential peptide binding cleft. […] To avoid competition between the peptide and residues of the authentic N-terminal leader of the unlabeled VP8* core, residues 60-64 of the core were mutated to SGSGG using PCR.

Data set [4] concerns the molecule itself. As to the kind of experiment: X-ray crystal structure.

In data set [1], “VP5CT of rhesus rotavirus (RRV) VP4 (from UniProt P12473 248-525)” showed a share of the surface area of each subunit buried by trimer contacts of 25.8% and a surface area of each subunit buried by trimer contacts of 3960 Å2.

B1: DS-1 VP8* core (residues 60-223 of DS-1 VP4) (other)
chain: TVEPVLDGPYQPTTFKPPNDYWLLISSNTNGVVYESTNNNDFWTAVIAVEPHVSQTNRQYILFGENKQFNVENNSDKWKFFEMFKGSSQGDFSNRRTLTSSNRLVGMLKYGGRVWTFHGETPRATTDSSNTADLNNISIIIHSEFYIIPRSQESKCNEYINNGL
notes: There are eight molecules in the asymmetric unit of the P1 crystal
In the case of B1, the binding result in data set [2] is “binds”.

B2: peptide TVEPVS (DS-1 VP4 residues 60-64 plus a C-terminal serine) (peptide)
peptide: TVEPVS
modifications: also: 15N-labelled on valine, position not given here
notes: also called leader peptide; assayed peptide
With B2, the binding result in data set [3] is “no binding”.

B3: RRV VP5* antigen domain (residues 247-479 of rhesus rotavirus VP4) (other)
chain: RAQANEDIVVSKTSLWKEMQYNRDITIRFKFASSIVKSGGLGYKWSEISFKPANYQYTYTRDGEEVTAHTTCSVNGMNDFNFNGGSLPTDFVISRYEVIKENSYVYVDYWDDSQAFRNMVYVRSLAANLNSVICTGGDYSFALPVGQWPVMTGGAVSLHSAGVTLSTQFTDFVSLNSLRFRFRLTVEEPSFSITRTRVSRLYGLPAANPNNGKEYYEVAGRFSLISLVPSNDD
notes: Expressed in Sf-9 cells from a baculovirus with an N-terminal histidine tag and a thrombin site; It crystallised both as a trimer and as a dimer, so copies is left open; also called VP5Ag; VP5* antigen (R247-D479)
Take B3: in data set [4], the binding result was “binds”.
